Substitutions are numbered along the chain they refer to.
B1: TKD: fusion protein: tumour-cell-penetrating peptide BR2, anti-KRas nanobody VHH and lysosome recognition peptide CTM; SEQ ID NO.4 (protein)
chain: RAGLQFPVGRLLRRLLRDVQLQESGGGLVQAGGSLRLSCVASGRTFSTYPTGWFRQAPGKEREFVARINLSGGITNYADSVKGRFTISRDNAKNTVYLQMNSLKPEDTAVYYCGGGSTTWAGGIPTNFDYWGQGTQVTVSSGRKFERQKILDQRFFE
B2: TKDm: control molecule of TKD with mutated CTM fragment (CTMmt) which could not be recognized by a lysosome; SEQ ID NO.5 (protein)
chain: B1 chain with Q148A, Q153A

How the values were obtained:
[1] = test system: HT29 (KRas wt); assay: CCK-8 cell proliferation experiment, HT29; settings: 10 and 20 μg/mL, 24 hours
Description: (§1) CCK-8 was a highly sensitive and non-radioactive colorimetric method for determining the number of living cells in the cell proliferation or toxicity test.

[2] = test system: HCT116 (KRas G13D); assay: CCK-8 cell proliferation experiment, HCT116; settings: 10 and 20 μg/mL, 24 hours
Description: as §1

[3] = biological target: T1, KRas protein (Homo sapiens, UniProt P01116); assay: ELISA of binding level to the KRas protein in vitro; settings: coated at 1 ng/μL, KRas 6.25-100 μg, compared with the control group
T1 construct: made in house
Description: 100 μL of coating solution was added into each well of 96-well ELISA plate to coat overnight at 4° C. • (3) Blocking: the ELISA plate was cleaned with a phosphate buffer solution (PBS) (PBS formula: 4 g of NaCl, 0.1 g of KCl, 1.815 g of disodium hydrogen phosphate dodecahydrate, and 0.12 g of […], dissolved in 400 mL of ultrapure water, with a constant volume of 500 mL for use) for 5 minutes each time. 300 μL of 5% (w/v) bovine serum albumin was added into each well, and blocked at 37° C. for 2 hours. • (4) Adding of the purified protein KRas: 6.25 μg, 12.5 μg, 25 μg, 50 μg and 100 μg of purified protein were respectively pre-mixed and diluted in 200 μL of PBS, and the diluted KRas protein was added into the wells in sequence, and slowly shaken at the room temperature for 5 hours. […] Main steps of the example were as follows: • (1) Coupling of ligand: the target coupling amount was calculated according to the following formula: […]

[4] = biological target: T2, wild-type KRas protein in HT29 (KRas wt) cells (Homo sapiens, UniProt P01116); assay: Western blot of KRas degradation in HT29 cells; assay type: cell-based; settings: for degradation of KRas protein, concentration-dependency (western blot): 0-20 μg/ml
T2 construct: host or cells: HT29
Description: • (1) Source and culture of cells: human colorectal cancer cells HT29 (KRas wt) and human colorectal cancer cells HCT116 (KRas G13D) came from American Type Culture Collection (ATCC) (item number: HTB-38, CCL-247). HT29 and HCT116 cells were all cultured in the 1640 culture medium added with 10% fetal bovine serum (FBS), under 5% CO2 at 37° C. • (2) The colorectal cancer cells HCT116 and HT29 were respectively spread in six-well plates, 500,000 cells per well. […] 2,000 μL of DMEM complete culture solution was added into each well and mixed evenly, and the cells were cultured at 37° C. for 24 hours. • (3) The cells were cleaned with PBS twice, and 0.5 mL of 0.25% pancreatin was added into each well to digest the cells and make the cells fall off from the culture dish wall. Then, the digestion was stopped with 1 mL of complete culture solution per well, the cell suspension was collected into a 1.5 mL EP tube, and centrifuged at the room temperature and 300 g for 3 minutes to collect the cells. The cells were resuspended with 1 mL of PBS, and repeatedly centrifuged for one time. • (4) The supernatant was removed, and 100 μL of lysate was added in each group (item number: P0013G; purchased from Beyotime Biotechnology Company). The cells were lysed on ice, vortically vibrated every 5 minutes, and centrifuged at 4° C. and 12,000 pm for 30 minutes after being lysed for 30 minutes, and the supernatant was collected into a new 1.5 mL EP tube. • (5) The protein concentration was measured by the BCA method, and 30 μg of protein was taken from each group for SDS denaturation gel electrophoresis, transferred and blocked with 5% skim milk for 1 hour. Then, KRas (source: Proteintech; item number: 12063-1-AP) and β-tublin (source: Proteintech; item number: 10094-1-AP) primary antibodies were added by a ratio of 1:2,000, and shaken overnight at 4° C. to remove the antibodies. The membrane was washed with TBST for three times, 10 minutes each time. The rabbit secondary antibody labeled with corresponding HRP (source: TransGen Company; item number: HS101-01) was added for dilution with the ratio of 1:3,000 and incubated in shaking at the room temperature for 1 hour, and the membrane was cleaned with TBST for three times, 10 minutes each time. The antibody was luminously developed in the dark room of the ELC luminescent kit. Concentrations of all the primary antibodies were 1:2,000 (1 […] diluted in 2,000 μL of primary antibody diluent).
The protein concentrations were measured by BCA, and 30 μg of protein was taken respectively and stored in a refrigerator at −20° C. for later use. • (3) Western blot experiment was carried out on collected protein samples.

Molecule | inhibition of cell growth (CCK-8) [1] | inhibition of cell growth (CCK-8) [2] | interaction with the KRas protein (ELISA, OD450-OD630) [3] | degradation of KRas, influence of administration time ([4]; 10 and 20 μg/mL, 1, 2, 6, 12, 24 hours, cell line not restated (FIG. 12)) | degradation of KRas protein, concentration-dependency (western blot) ([4]; HT29, 24 hours) | degradation effect on KRas at 10 ug/mL and 20 ug/mL ([4]; HT29, FIG. 11, 24 hours)
B1 | could significantly inhibit growth | could significantly inhibit growth | had a stronger interaction with the KRas protein | could rapidly degrade KRas, and the degradation was time-dependent within a certain range | could cause degradation of expression levels of the wild-type and mutant-type KRas proteins in the colorectal cancer cells, and the degradation degree was increased with the increase of the concentration | the degradation effect on KRas was obvious
B2 | could not achieve the same effect | could not achieve the same effect | had a stronger interaction with the KRas protein |  | could not play a similar role | 

Reference: patent US12508311B2, “Fusion protein, and preparation method and use thereof” (SUN YAT-SEN UNIVERSITY, priority 2021, dated 2025)
